Experimental data published in US20220387457A1.

Substrate: CC1(C)Oc2ccc(C#N)cc2[C@@H](N2CCCC2=O)[C@@H]1OP(=O)(O)O
Test: purified protein, by the assay type
Format: biochemical, human
Settings: other: ALP 0.02 U/100 μL, pH 10, 37.0 °C
Protocol: To activate CKLP1, the phosphate is hydrolyzed from phosphatases to produce leveromakalim, the active moiety that can open (activate) ATP-sensitive potassium channels.
In the first experiment, a fixed concentration of CKLP1 solution was incubated with varying concentrations of placenta-derived human alkaline phosphatase. To accomplish this, placenta-derived human alkaline phosphatase (0.0002 U) in a 100-μL volume was added to each of thirteen 1.5-mL tubes. To each tube, CKLP1 was then added at a fixed concentration [10 mM (0.4%)]. Tubes were inverted twice and incubated in a water bath at 37° C. At each of 13 different time points (0, 1, 2.5, 5, 15, and 30 minutes and at 1, 2, 4, 8, 24, 48, and 72 hours), a single tube was removed, and the reaction was stopped by the addition of 2 volumes (200 μL) of acetonitrile. Samples were stored at −80° C. The experiment was repeated with 10 mM CKLP1 (0.4%) in the presence of placenta-derived human alkaline phosphatase at concentrations of 0.002 U, 0.02 U, and 0.2 U. All assays were performed at pH 10.
In a second experiment, a fixed concentration of placenta-derived human alkaline phosphatase was incubated with varying concentrations of CKLP1. To accomplish this, a fixed concentration of 0.02 U of placenta-derived human alkaline phosphatase in a 100-μL volume was added to each of thirteen 1.5-mL tubes. […]

B1: placenta-derived human alkaline phosphatase (Homo sapiens) (protein)
chain: IIPVEEENPDFWNREAAEALGAAKKLQPAQTAAKNLIIFLGDGMGVSTVTAARILKGQKKDKLGPEIPLAMDRFPYVALSKTYNVDKHVPDSGATATAYLCGVKGNFQTIGLSAAARFNQCNTTRGNEVISVMNRAKKAGKSVGVVTTTRVQHASPAGTYAHTVNRNWYSDADVPASARQEGCQDIATQLISNMDIDVILGGGRKYMFRMGTPDPEYPDDYSQGGTRLDGKNLVQEWLAKRQGARYVWNRTELMQASLDPSVTHLMGLFEPGDMKYEIHRDSTLDPSLMEMTEAALRLLSRNPRGFFLFVEGGRIDHGHHESRAYRALTETIMFDDAIERAGQLTSEEDTLSLVTADHSHVFSFGGYPLRGSSIFGLAPGKARDRKAYTVLLYGNGPGYVLKDGARPDVTESESGSPEYRQQSAVPLDEETHAGEDVAVFARGPQAHLVHGVQEQTFIAHVMAFAACLEPYTACDLAPPAGTTD
notes: varying concentrations of placenta-derived human alkaline phosphatase; from tissue; host or cells: human placenta
Question: Which Km does the source give for B1 here?
Answer: 399 µM
